The values that follow come from paper doi:10.1101/2021.09.16.460654.

In this assay the target is S. aureus FakA (S. aureus).

With “FakB1(A121I) (from UniProt X5EH37 1-288) (natural protein)”, the apparent KM for FakB1(A121I) in the FA kinase assay (0.2 µM FakA, [14C]16:0) is 0.1 µM.

Consider “FakB1(A158L) (from UniProt X5EH37 1-288) (natural protein)”, for which the apparent KM for FakB1(A158L) in the FA kinase assay (0.2 µM FakA, [14C]16:0) was determined as 0.13 µM. In the case of “S. aureus wild-type FakB1 (from UniProt X5EH37 1-288) (natural protein)”, the apparent KM for FakB1 in the FA kinase assay (0.2 µM FakA, [14C]16:0) amounted to 0.13 µM.
